In patent US20020081570A1, “System to detect protein-protein interactions” (priority 2000, published 2002):

Biological target: T1, syntaxin 1A (Homo sapiens, UniProt Q16623)
T1 construct: expressed in transfected cells; host or cells: yeast (two-hybrid; cotransformations and yeast matings)
Assay: yeast two-hybrid screen (cotransformations and yeast matings)
Type: binding
Details: yeast two hybrid system
Text: The present inventors completed a yeast two-hybrid screen using Syt 1, syntaxin 1A and synaptobrevin 2 (Vamp 2). Recombinant and native Syt-1 and syntaxin 1A were shown previously to interact in a calcium dependent manner. […] Screens performed using two different approaches—cotransformations and yeast matings—gave identical findings.

T1 sequence (Q16623 whole entry, species assumed): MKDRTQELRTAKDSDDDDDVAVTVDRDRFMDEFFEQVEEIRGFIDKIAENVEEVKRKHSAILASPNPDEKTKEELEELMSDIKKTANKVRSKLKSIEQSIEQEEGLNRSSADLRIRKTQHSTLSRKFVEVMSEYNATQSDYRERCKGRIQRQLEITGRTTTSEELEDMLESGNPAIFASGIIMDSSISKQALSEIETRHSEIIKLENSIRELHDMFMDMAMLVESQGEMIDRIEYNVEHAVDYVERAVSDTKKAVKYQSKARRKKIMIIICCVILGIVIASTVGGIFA

| Substance | direct interaction with syntaxin 1A |
| --- | --- |
| synaptobrevin: synaptobrevin 2 (Vamp 2) protein used in yeast two-hybrid screen | interact directly |
| Syt-1: synaptotagmin I protein used in yeast two-hybrid screen | did not |
